B1: FUS RRM β2 peptide (peptide)
peptide: MINLYT
notes: FUS, human, β2 strand of the RRM, residues 321-326; source: synthetic peptide (synthesized by Mission Biotech)
B2: FUS RRM (residues 281–375) (domain or fragment, human, UniProt P35637 281-375, looked up)
chain: NSDNNTIFVQGLGENVTIESVADYFKQIGIIKTNKKTGQPMINLYTDRETGKLKGEATVSFDDPPSAKAAIDWFDGKEFSGNPIKVSFATRRADF
notes: Fused in Sarcoma (FUS), human, RNA recognition motif, residues 281-375; Vector PQE30 or pET28a; also called Fused in Sarcoma RRM; source: E. coli (M15 or BL21-CodonPlus (DE3) RIPL), purified (HisTrap FF, HiTrap Heparin HP, Superdex 75)
B3: TDP-43 RRM1 β2a peptide (peptide)
peptide: VLMVQVKK
notes: TDP-43, human, β2 strand of RRM1, residues 130-137; source: synthetic peptide (synthesized by Mission Biotech)
B4: TDP-43 RRM1 β2b peptide (peptide)
peptide: GEVLMVQVKK
notes: TDP-43, human, β2 strand of RRM1, residues 128-137; source: synthetic peptide (synthesized by Mission Biotech)

Key:
[1] = biological target: the molecule itself; assay: ATR-FTIR spectroscopy; fresh protein or peptide against freshly prepared fibrils washed and re-suspended in D2O; amide I band 1600–1700 cm^-1; self-assembly into amyloid fibrils of parallel β-sheets
[2] = biological target: the molecule itself; assay: Thioflavin T fluorescence; fresh protein or fibrillar solutions mixed with ThT (final 20 μM), 10 mM phosphate buffer, excited at 442 nm, emission 460–600 nm; self-assembly into amyloid-like aggregates
[3] = biological target: the molecule itself; assay: X-ray fibre diffraction; fibrils grown by agitation at room temperature for two days (RRMs 50 μM in 10 mM phosphate pH 7.5, 50 mM NaCl; peptides in water), also seen by negative-stain TEM; fibrils centrifuged, washed, dried, diffraction at room temperature; self-assembly into amyloid fibrils

Protein	binding result [3]	further results
B1	–	binding result [1]: binds
B2	–	binding result [2]: binds
B3	binds	–
B4	binds	–
